Source: paper PMC8812686 (Proceedings of the National Academy of Sciences of the …, 2022)

Biological target: the molecule itself
Experiment: SEC

B1: CcmL, pentameric vertex protein of the β-carboxysome from Thermosynechococcus elongatus BP-1 (natural protein)
chain: MKIARVCGTVTSTQKEDTLTGVKFLVLQYLGEDGEFLPDYEVAADTVGAGQDEWVLVSRGSAARHIINGTDKPIDAAVVAIIDTVSRDNYLLYSKRTQY
For B1, the “stoichiometry N” value was 5.

B2: HCcmL, CcmL with a pentahistidine tag (Histag) inserted between D33 and G34 (natural protein, Thermosynechococcus elongatus BP-1)
chain: MKIARVCGTVTSTQKEDTLTGVKFLVLQYLGEDHHHHHGEFLPDYEVAADTVGAGQDEWVLVSRGSAARHIINGTDKPIDAAVVAIIDTVSRDNYLLYSKRTQY
B2 was tested, and the “stoichiometry N” value was 5.
